The values that follow come from PMC10475850.

By stoichiometry N is commonly meant a count of units in the complex or per binding partner. By Kd is commonly meant the free concentration of one partner at which half of the binding sites on the other are occupied at equilibrium, for simple one-to-one binding. Usually koff stands for the rate constant with which the complex falls apart. One may read the kon as the second-order rate constant of association.

Experiment [1] deals with Csp1 (cysteine-rich helical bundle copper-storage protein). The experiment is described as follows: SEC; analytical size exclusion of the purified protein (Figure S8); conditions not given. (In general: SEC sorts molecules by how far they enter the pores of the column.)
For experiment [2], the target named is Recombinant Human TGF-alpha (human). The experiment can be described thus: SPR; Biacore X100, multi-cycle kinetics; TGF-α amine-coupled to CM5 chip (100 μg/mL, acetate pH 4.5); binders injected at five concentrations (nanomolar to low micromolar range) 60 s, 60 s dissociation; PBS with 0.05% Tween-20, 25°C, 10 μL/min; global fit.
The target in experiment [3] is Recombinant Human HB-EGF (human). The experiment can be described thus: SPR; Biacore X100, multi-cycle kinetics; HB-EGF amine-coupled to CM5 chip (20 μg/mL, acetate pH 5.0); binders injected at five concentrations (nanomolar range) 180 s, 180 s dissociation; PBS with 0.05% Tween-20, 25°C, 10 μL/min; global fit. On the technique in general: SPR reads the build-up and loss of mass on a sensor chip optically.

Experiment [4] has as its target Recombinant Human EGF (human).
Experiment [5] concerns the target Recombinant Human EGF (human). The experiment is described as follows: SPR; Biacore X100, multi-cycle kinetics; EGF amine-coupled to CM5 chip (100 μg/mL, acetate pH 4.0); binders injected at five concentrations (nanomolar range) 120 s, 180 s dissociation; PBS with 0.05% Tween-20, 25°C, 10 μL/min; global fit.

Substance “Csp1 (cysteine-rich helical bundle copper-storage protein) (natural protein)” displayed a stoichiometry N in experiment [1] of 4.

On to “human EGFR domain 3 (d3-WT) (domain or fragment)”, for which, in experiment [2], the Kd worked out at 2550 nM, the koff was 0.0577 s⁻¹ and the kon worked out at 38400 M⁻¹ s⁻¹. For the same substance, in experiment [3], the Kd is 370 nM, the koff was determined as 0.0107 s⁻¹ and the kon came out at 47200 M⁻¹ s⁻¹. Further, the IC50 of inhibition of proliferation of A431 cells stimulated with 400 pM EGF (EGF acting on EGFR), d3-WT at 0.032-500 nM, 72 h in experiment [4] is 0.476 µM. Besides, in experiment [5], the Kd worked out at 56 nM, the koff was 0.0028 s⁻¹ and the kon came out at 49700 M⁻¹ s⁻¹.
